Experimental findings from US20200199241A1 (Chugai, published 2020) are described below.

B1: IgG1-F21 (antibody)
heavy: QVQLQESGPGLVKPSETLSLTCAVSGHSISHDHAWSWVRQPPGEGLEWIGFISYSGITNYNPSLQGRVTISRDNSKNTLYLQMNSLRAEDTAVYYCARSLARTTAMDYWGEGTLVTVSSASTKGPSVFPLAPSSKSTSGGTAALGCLVKDYFPEPVTVSWNSGALTSGVHTFPAVLQSSGLYSLSSVVTVPSSSLGTQTYICNVNHKPSNTKVDKKVEPKSCDKTHTCPPCPAPELLGGPSVFLFPPKPKDTLYISRTPEVTCVVVDVSHEDPEVKFNWYVDGVEVHNAKTKPREEQYNSTYRVVSVLTPLHQDWLNGKEYKCKVSNKALPAPIEKTISKAKGQPREPQVYTLPPSRDELTKNQVSLTCLVKGFYPSDIAVEWESNGQPENNYKTTPPVLDSDGSFFLYSKLTVDKSRWQQGNVFSCSVMHEALHYHYTQKSLSLSP
light: not shown
notes: copies: 2 + 2
B2: IgG1-F74 (antibody)
heavy: QVQLQESGPGLVKPSETLSLTCAVSGHSISHDHAWSWVRQPPGEGLEWIGFISYSGITNYNPSLQGRVTISRDNSKNTLYLQMNSLRAEDTAVYYCARSLARTTAMDYWGEGTLVTVSSASTKGPSVFPLAPSSKSTSGGTAALGCLVKDYFPEPVTVSWNSGALTSGVHTFPAVLQSSGLYSLSSVVTVPSSSLGTQTYICNVNHKPSNTKVDKKVEPKSCDKTHTCPPCPAPELLGGPSVFLFPPKPKDTLYISRTPEVTCVVVDVSHEDPEVKFNWYVDGVEVHNAKTKPREEQYNSTYRVVSVLTVLHQDWLNGKEYKCKVSNKALPAPIEKTISKAKGQPREPQVYTLPPSRDELTKNQVSLTCLVKGFYPSDIAVEWESNGQPENNYKTTPPVLDSDGSFFLYSKLTVDKSRWQQGNVFSCSVLHEALHYHYTQKSLSLSP
light: not shown
notes: EU numbering; copies: 2 + 2
B3: IgG1-F39 (antibody)
heavy: QVQLQESGPGLVKPSETLSLTCAVSGHSISHDHAWSWVRQPPGEGLEWIGFISYSGITNYNPSLQGRVTISRDNSKNTLYLQMNSLRAEDTAVYYCARSLARTTAMDYWGEGTLVTVSSASTKGPSVFPLAPSSKSTSGGTAALGCLVKDYFPEPVTVSWNSGALTSGVHTFPAVLQSSGLYSLSSVVTVPSSSLGTQTYICNVNHKPSNTKVDKKVEPKSCDKTHTCPPCPAPELLGGPSVFLFPPKPKDTLYITRTPEVTCVVVDVSHEDPEVKFNWYVDGVEVHNAKTKPREEQYNSTYRVVSVLTVLHQDWLNGKEYKCKVSNKALPAPIEKTISKAKGQPREPQVYTLPPSRDELTKNQVSLTCLVKGFYPSDIAVEWESNGQPENNYKTTPPVLDSDGSFFLYSKLTVDKSRWQQGNVFSCSVMHEALHYHYTQKSLSLSP
light: not shown
notes: EU numbering; copies: 2 + 2
B4: IgG1-F80 (antibody)
heavy: QVQLQESGPGLVKPSETLSLTCAVSGHSISHDHAWSWVRQPPGEGLEWIGFISYSGITNYNPSLQGRVTISRDNSKNTLYLQMNSLRAEDTAVYYCARSLARTTAMDYWGEGTLVTVSSASTKGPSVFPLAPSSKSTSGGTAALGCLVKDYFPEPVTVSWNSGALTSGVHTFPAVLQSSGLYSLSSVVTVPSSSLGTQTYICNVNHKPSNTKVDKKVEPKSCDKTHTCPPCPAPELLGGPSVFLFPPKPKDTLYISRQPEVTCVVVDVSHEDPEVKFNWYVDGVEVHNAKTKPREEQYNSTYRVVSVLTVLHQDWLNGKEYKCKVSNKALPAPIEKTISKAKGQPREPQVYTLPPSRDELTKNQVSLTCLVKGFYPSDIAVEWESNGQPENNYKTTPPVLDSDGSFFLYSKLTVDKSRWQQGNVFSCSVMHEALHAHYTQKSLSLSP
light: not shown
notes: EU numbering; copies: 2 + 2
B5: IgG1-F42 (antibody)
heavy: QVQLQESGPGLVKPSETLSLTCAVSGHSISHDHAWSWVRQPPGEGLEWIGFISYSGITNYNPSLQGRVTISRDNSKNTLYLQMNSLRAEDTAVYYCARSLARTTAMDYWGEGTLVTVSSASTKGPSVFPLAPSSKSTSGGTAALGCLVKDYFPEPVTVSWNSGALTSGVHTFPAVLQSSGLYSLSSVVTVPSSSLGTQTYICNVNHKPSNTKVDKKVEPKSCDKTHTCPPCPAPELLGGPSVFLFPPKPKDTLYITREPEVTCVVVDVSHEDPEVKFNWYVDGVEVHNAKTKPREEQYNSTYRVVSVLTVLHQDWLNGKEYKCKVSNKALPAPIEKTISKAKGQPREPQVYTLPPSRDELTKNQVSLTCLVKGFYPSDIAVEWESNGQPENNYKTTPPVLDSDGSFFLYSKLTVDKSRWQQGNVFSCSVMHEALHAHYTQKSLSLSP
light: not shown
notes: EU numbering; copies: 2 + 2
B6: IgG1-F78 (antibody)
heavy: QVQLQESGPGLVKPSETLSLTCAVSGHSISHDHAWSWVRQPPGEGLEWIGFISYSGITNYNPSLQGRVTISRDNSKNTLYLQMNSLRAEDTAVYYCARSLARTTAMDYWGEGTLVTVSSASTKGPSVFPLAPSSKSTSGGTAALGCLVKDYFPEPVTVSWNSGALTSGVHTFPAVLQSSGLYSLSSVVTVPSSSLGTQTYICNVNHKPSNTKVDKKVEPKSCDKTHTCPPCPAPELLGGPSVFLFPPKPKDTLMITRTPEVTCVVVDVSHEDPEVKFNWYVDGVEVHNAKTKPREEQYNSTYRVVSVLTVLHQDWLNGKEYKCKVSNKALPAPIEKTISKAKGQPREPQVYTLPPSRDELTKNQVSLTCLVKGFYPSDIAVEWESNGQPENNYKTTPPVLDSDGSFFLYSKLTVDKSRWQQGNVFSCSVLHEALHWHYTQKSLSLSP
light: not shown
notes: EU numbering; copies: 2 + 2
B7: IgG1-F38 (antibody)
heavy: QVQLQESGPGLVKPSETLSLTCAVSGHSISHDHAWSWVRQPPGEGLEWIGFISYSGITNYNPSLQGRVTISRDNSKNTLYLQMNSLRAEDTAVYYCARSLARTTAMDYWGEGTLVTVSSASTKGPSVFPLAPSSKSTSGGTAALGCLVKDYFPEPVTVSWNSGALTSGVHTFPAVLQSSGLYSLSSVVTVPSSSLGTQTYICNVNHKPSNTKVDKKVEPKSCDKTHTCPPCPAPELLGGPSVFLFPPKPKDTLYITRTPEVTCVVVDVSHEDPEVKFNWYVDGVEVHNAKTKPREEQYNSTYRVVSVLTVLHQDWLNGKEYKCKVSNKALPAPIEKTISKAKGQPREPQVYTLPPSRDELTKNQVSLTCLVKGFYPSDIAVEWESNGQPENNYKTTPPVLDSDGSFFLYSKLTVDKSRWQQGNVFSCSVMHEALHWHYTQKSLSLSP
light: not shown
notes: EU numbering; copies: 2 + 2
B8: IgG1-F73 (antibody)
heavy: QVQLQESGPGLVKPSETLSLTCAVSGHSISHDHAWSWVRQPPGEGLEWIGFISYSGITNYNPSLQGRVTISRDNSKNTLYLQMNSLRAEDTAVYYCARSLARTTAMDYWGEGTLVTVSSASTKGPSVFPLAPSSKSTSGGTAALGCLVKDYFPEPVTVSWNSGALTSGVHTFPAVLQSSGLYSLSSVVTVPSSSLGTQTYICNVNHKPSNTKVDKKVEPKSCDKTHTCPPCPAPELLGGPSVFLFPPKPKDTLYISRTPEVTCVVVDVSHEDPEVKFNWYVDGVEVHNAKTKPREEQYNSTYRVVSVLTVLHQDWLNGKEYKCKVSNKALPAPIEKTISKAKGQPREPQVYTLPPSRDELTKNQVSLTCLVKGFYPSDIAVEWESNGQPENNYKTTPPVLDSDGSFFLYSKLTVDKSRWQQGNVFSCSVLHEALHWHYTQKSLSLSP
light: not shown
notes: EU numbering; copies: 2 + 2
B9: IgG1-F72 (antibody)
heavy: QVQLQESGPGLVKPSETLSLTCAVSGHSISHDHAWSWVRQPPGEGLEWIGFISYSGITNYNPSLQGRVTISRDNSKNTLYLQMNSLRAEDTAVYYCARSLARTTAMDYWGEGTLVTVSSASTKGPSVFPLAPSSKSTSGGTAALGCLVKDYFPEPVTVSWNSGALTSGVHTFPAVLQSSGLYSLSSVVTVPSSSLGTQTYICNVNHKPSNTKVDKKVEPKSCDKTHTCPPCPAPELLGGPSVFLFPPKPKDTLYITREPEVTCVVVDVSHEDPEVKFNWYVDGVEVHNAKTKPREEQYNSTYRVVSVLTVLHQDWLNGKEYKCKVSNKALPAPIEKTISKAKGQPREPQVYTLPPSRDELTKNQVSLTCLVKGFYPSDIAVEWESNGQPENNYKTTPPVLDSDGSFFLYSKLTVDKSRWQQGNVFSCSVLHEALHYHYTQKSLSLSP
light: not shown
notes: EU numbering; copies: 2 + 2
B10: IgG1-F77 (antibody)
heavy: QVQLQESGPGLVKPSETLSLTCAVSGHSISHDHAWSWVRQPPGEGLEWIGFISYSGITNYNPSLQGRVTISRDNSKNTLYLQMNSLRAEDTAVYYCARSLARTTAMDYWGEGTLVTVSSASTKGPSVFPLAPSSKSTSGGTAALGCLVKDYFPEPVTVSWNSGALTSGVHTFPAVLQSSGLYSLSSVVTVPSSSLGTQTYICNVNHKPSNTKVDKKVEPKSCDKTHTCPPCPAPELLGGPSVFLFPPKPKDTLMISREPEVTCVVVDVSHEDPEVKFNWYVDGVEVHNAKTKPREEQYNSTYRVVSVLTVLHQDWLNGKEYKCKVSNKALPAPIEKTISKAKGQPREPQVYTLPPSRDELTKNQVSLTCLVKGFYPSDIAVEWESNGQPENNYKTTPPVLDSDGSFFLYSKLTVDKSRWQQGNVFSCSVLHEALHYHYTQKSLSLSP
light: not shown
notes: EU numbering; copies: 2 + 2
B11: IgG1-F76 (antibody)
heavy: QVQLQESGPGLVKPSETLSLTCAVSGHSISHDHAWSWVRQPPGEGLEWIGFISYSGITNYNPSLQGRVTISRDNSKNTLYLQMNSLRAEDTAVYYCARSLARTTAMDYWGEGTLVTVSSASTKGPSVFPLAPSSKSTSGGTAALGCLVKDYFPEPVTVSWNSGALTSGVHTFPAVLQSSGLYSLSSVVTVPSSSLGTQTYICNVNHKPSNTKVDKKVEPKSCDKTHTCPPCPAPELLGGPSVFLFPPKPKDTLYITREPEVTCVVVDVSHEDPEVKFNWYVDGVEVHNAKTKPREEQYNSTYRVVSVLTVLHQDWLNGKEYKCKVSNKALPAPIEKTISKAKGQPREPQVYTLPPSRDELTKNQVSLTCLVKGFYPSDIAVEWESNGQPENNYKTTPPVLDSDGSFFLYSKLTVDKSRWQQGNVFSCSVLHEALHAHYTQKSLSLSP
light: not shown
notes: EU numbering; copies: 2 + 2
B12: IgG1-F75 (antibody)
heavy: QVQLQESGPGLVKPSETLSLTCAVSGHSISHDHAWSWVRQPPGEGLEWIGFISYSGITNYNPSLQGRVTISRDNSKNTLYLQMNSLRAEDTAVYYCARSLARTTAMDYWGEGTLVTVSSASTKGPSVFPLAPSSKSTSGGTAALGCLVKDYFPEPVTVSWNSGALTSGVHTFPAVLQSSGLYSLSSVVTVPSSSLGTQTYICNVNHKPSNTKVDKKVEPKSCDKTHTCPPCPAPELLGGPSVFLFPPKPKDTLYISRTPEVTCVVVDVSHEDPEVKFNWYVDGVEVHNAKTKPREEQYNSTYRVVSVLTVLHQDWLNGKEYKCKVSNKALPAPIEKTISKAKGQPREPQVYTLPPSRDELTKNQVSLTCLVKGFYPSDIAVEWESNGQPENNYKTTPPVLDSDGSFFLYSKLTVDKSRWQQGNVFSCSVLHEALHAHYTQKSLSLSP
light: not shown
notes: EU numbering; copies: 2 + 2

Broadly, the Kd is a measure of binding affinity in units of concentration. Read a low Kd as a tighter complex.

T1 sequence (chain, as listed by the source limits assumed, chain 1 of 2): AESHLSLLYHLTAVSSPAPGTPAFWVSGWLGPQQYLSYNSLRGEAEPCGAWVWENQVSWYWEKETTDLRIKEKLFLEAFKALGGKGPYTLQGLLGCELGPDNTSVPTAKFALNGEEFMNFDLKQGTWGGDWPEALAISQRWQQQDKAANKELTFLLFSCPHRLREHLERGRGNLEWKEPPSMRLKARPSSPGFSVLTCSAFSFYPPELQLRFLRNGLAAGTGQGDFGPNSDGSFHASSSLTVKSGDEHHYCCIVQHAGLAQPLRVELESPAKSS
T1 sequence (P61769 21-119 limits assumed, chain 2 of 2): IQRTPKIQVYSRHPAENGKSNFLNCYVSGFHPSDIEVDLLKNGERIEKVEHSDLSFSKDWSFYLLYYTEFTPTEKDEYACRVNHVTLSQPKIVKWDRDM

This experiment addresses T1, human FcRn (soluble human FcRn complexed with β2-microglobulin) (human, UniProt P61769 21-119, limits assumed).
T1 construct: also called hFcRn
Nature of the experiment: SPR, pH 7.0.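 Also: antibodies captured on a Protein L sensor chip with human FcRn injected as analyte, KD calculated from fitted association and dissociation rate constants.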
The molecule B1 gave a Kd of 30 nM.

Molecule B2 displayed a Kd of 460 nM.

Turning to B3, binding was put at a Kd of 300 nM.

On to B4, for which the Kd worked out at 2700 nM.

Consider B5, for which the Kd came out at 1000 nM.

Consider B6, for which the dissociation constant (Kd) stood at 780 nM.

In turn, B7 registered an equilibrium dissociation constant (Kd) of 100 nM.

B8 registered a Kd of 170 nM.

B9 gave a Kd of 200 nM.

The molecule B10 returned a Kd of 990 nM.

Turning to B11, the affinity, expressed as Kd, was 1000 nM.

With B12, the affinity, expressed as Kd, was 1400 nM.
